Reference: PMC6695498, “Arkadia/RNF111 is a SUMO-targeted ubiquitin ligase with preference for substrates marked with SUMO1-capped SUMO2/3 chain” (Nature Communications, 2019)
Values joined by “and” are separate entries in the source; they are usually repeats but may differ in a detail not shown here. Equal entries are not always repeated.

T1: Arkadia SUMO-binding domain (residues 285-416), wild type (mouse, UniProt Q99ML9 285-416)
T1 construct: it holds SIM1, SOB and SIM2; Subcloned into pGEX-TEV/N (TEV site after the thrombin site); also called Arkadia-WT 285-416; SIM domain of Arkadia
T1 sequence (looked up): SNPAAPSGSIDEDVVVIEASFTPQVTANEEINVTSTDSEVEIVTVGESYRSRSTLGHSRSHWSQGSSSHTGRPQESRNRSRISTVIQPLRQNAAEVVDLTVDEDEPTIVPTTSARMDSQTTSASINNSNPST


Biological target: T1, Arkadia SUMO-binding domain (residues …)
Test: ITC; iTC200; ITC buffer (50 mM Tris/HCl pH 7.5, 150 mM NaCl, 2 mM DTT, 5% glycerol), 30 °C; 20-30 injections up to a twofold to threefold molar excess; which partner was in the syringe is not told; single titrations and their mean
Conditions: both partners purified

Kd | Binder
1400 nM and 3800 nM and 2100 nM | linear SUMO1-capped SUMO2 dimer (SUMO1-ΔN15 - SUMO2-ΔN11) (other) KKEGEYIKLKVIGQDSSEIHFKVKMTTHLKKLKESYCQRQGVPMNSLRFLFEGQRIADNHTPKELGMEEEDVIEVYQEQTRSTENNDHINLKVAGQDGSVVQFKIKRHTPLSKLMKAYCERQGLSMRQIRFRFDGQPINETDTPAQLEMEDEDTIDVFQQQTGG
3500 nM and 2100 nM and 2300 nM and 1500 nM | linear SUMO1-capped SUMO2 trimer (SUMO1-ΔN15 - 2xSUMO2-ΔN11) (other) KKEGEYIKLKVIGQDSSEIHFKVKMTTHLKKLKESYCQRQGVPMNSLRFLFEGQRIADNHTPKELGMEEEDVIEVYQEQTRSTENNDHINLKVAGQDGSVVQFKIKRHTPLSKLMKAYCERQGLSMRQIRFRFDGQPINETDTPAQLEMEDEDTIDVFQQQTRSTENNDHINLKVAGQDGSVVQFKIKRHTPLSKLMKAYCERQGLSMRQIRFRFDGQPINETDTPAQLEMEDEDTIDVFQQQTGG
